The labels stand for the following.
B1: Ras-related protein Rab-5A (Homo sapiens), P20339 (parent)
chain: MASRGATRPNGPNTGNKICQFKLVLLGESAVGKSSLVLRFVKGQFHEFQESTIGAAFLTQTVCLDDTTVKFEIWDTAGQERYHSLAPMYYRGAQAAIVVYDITNEESFARAKNWVKELQRQASPNIVIALSGNKADLANKRAVDFQEAQSYADDNSLLFMETSAKTSMNVNEIFMAIAKKLPKNEPQNPGANSARGRGVDLTEPTQPTRNQCCSN
partner: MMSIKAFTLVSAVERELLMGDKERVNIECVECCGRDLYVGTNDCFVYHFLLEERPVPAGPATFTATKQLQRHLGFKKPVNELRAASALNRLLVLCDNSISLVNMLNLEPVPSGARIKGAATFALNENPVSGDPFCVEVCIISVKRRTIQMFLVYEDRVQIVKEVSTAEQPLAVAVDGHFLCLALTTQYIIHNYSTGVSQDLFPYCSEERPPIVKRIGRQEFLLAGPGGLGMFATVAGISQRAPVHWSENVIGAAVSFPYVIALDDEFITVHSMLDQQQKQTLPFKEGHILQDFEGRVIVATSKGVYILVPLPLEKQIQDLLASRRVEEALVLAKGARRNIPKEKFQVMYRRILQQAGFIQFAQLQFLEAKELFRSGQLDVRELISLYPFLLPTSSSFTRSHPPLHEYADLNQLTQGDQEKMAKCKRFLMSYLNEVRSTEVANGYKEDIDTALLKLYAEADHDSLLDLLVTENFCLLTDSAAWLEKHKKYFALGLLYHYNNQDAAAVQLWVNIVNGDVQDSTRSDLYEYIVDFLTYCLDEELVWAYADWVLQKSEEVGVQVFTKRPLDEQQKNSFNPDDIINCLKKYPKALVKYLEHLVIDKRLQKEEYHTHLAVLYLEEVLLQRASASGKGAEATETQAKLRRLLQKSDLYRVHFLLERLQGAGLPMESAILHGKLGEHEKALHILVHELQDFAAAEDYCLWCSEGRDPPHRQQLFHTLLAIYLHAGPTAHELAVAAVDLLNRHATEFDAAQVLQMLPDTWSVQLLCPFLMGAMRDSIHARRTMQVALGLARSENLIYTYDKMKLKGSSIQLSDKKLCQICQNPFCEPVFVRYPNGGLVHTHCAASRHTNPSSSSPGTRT

The variants in the assay derive from B1. The settings on record: with tgfa1_human TGFBRAP1, Q8WUH2.
On to S34N, for which the “effect of a mutation on the interaction” value is on record as “decreasing interaction”.

Source of the values: IntAct's records for PubMed 25266290.
